The data set in a line: yeast display, Sf9 membrane polyspecificity reagent, FACS + sequencing; frameworks hold sequencing errors. Put shortly:
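In a synthetic yeast display library (Saccharomyces cerevisiae BJ5465), nanobody expression was induced with galactose for 36–48 hours. FACS gates were set low and high (top ~1%) using anti-HA fluorescence for expression and streptavidin fluorescence for binding of the Sf9 membrane reagent. Each polyreactivity label is drawn from the gate of origin.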
On to “QVQLVESGGGLVQAGGSLRLSFAASGSTFPVYTMGWYRQAPGKERELVAAITGSGGRTYYADSVKGRFTISRDNAKNTVYLQMNSLKPEDTAVYYCNAYPKGRYAAAFPGMDYWGQGTQVTVSS”, for which the “polyreactivity (PSR sort gate)” value is “high polyreactivity”.

For “QVQLVESGGGLVQAGGSLRLSFAASGYIFYPNVMGWYRQAPGKERELVADISSGGSTNYADSVKGRFTISRDNAKNTVYLQINSLKPEDTAVYYCAKGPRLYFTRDKAHWKYDYWGQGTQVTVSS”, the “polyreactivity (PSR sort gate)” value was “low polyreactivity”.

With “QVQLVESGGGLVQAGGSLRLSFAATGRICSPYAMGWYRQAPGKERELVAAISYDDGITYYADSVKGRFTISRDNATNTVYLQMNSLTPEDTAVYYCAADSVTRPAGDYWGQGTQVTVSS”, the “polyreactivity (PSR sort gate)” value is listed as “low polyreactivity”.

As to “QVQLVESGGGLVQAGGSLRLSFAGSGYIFTSYAMRWYRQAPGKERQLVARINYSGGGTSYADSVKGRFTISRDNAKHTVYLQMNSLKQEDTAVYYCAARSYWFRPTKYNYWGQGTQVTVSS”, the “polyreactivity (PSR sort gate)” value was “high polyreactivity”.

As to “QVQLVESGGGLVQAGGSLRLSFAPSGNSFGRYAMGWYRQAPGKERELVAAITRSGGTTYYADSVKGRFTLSRDNAKNTGYLQMNSLKPEDTAVYYCATDGDSTKLDYWGQGTQVTVSS”, the “polyreactivity (PSR sort gate)” value is listed as “low polyreactivity”.

As for “QVQLVESGGGLVQAGGSLRLSFDASGLIFYYYTMGWYRPAPGKERELVAAITWTDVDTYYADSVKGRFTISRDNAKNTVYLQMNSLKPEDTAVYYCAAEGGRTSYGGSGELDYWGQGTQVTVSS”, the “polyreactivity (PSR sort gate)” value is given as “high polyreactivity”.

Consider “QVQLVESGGGLVQAGGSLRLSGAASGFIFIGYTMGWYRQAPGKAWELVATISLGDDSTYYADSVKGRFTISRDNAKNTVYLQMNSLKPEDTAVYYCAGDQKDGTTSAYDYCGQGTQVTVSS”, for which the “polyreactivity (PSR sort gate)” value is given as “low polyreactivity”.

For the sequence “QVQLVESGGGLVQAGGSLRLSGAASGFTFDNNAMGWYRQAPGKEREMVAAITGRGSRTNYADSVKGRFTISRDNAKNTVYLQMNSLKPEDTAVYYCATRLWVYGEGSFDDWGQGTQVTVSS”, the “polyreactivity (PSR sort gate)” value was “high polyreactivity”.

Take “QVQLVESGGGLVQAGGSLRLSGAASGRIFDIYAMGWYRQAPGKERELVAGITSVGSTNYADSVKGRFTISRDYAKNTVYLQMNSLKPEDTAVYYCAADTSVHSEVDYGGQGTQVTVSS”: the “polyreactivity (PSR sort gate)” value was “low polyreactivity”.

Turning to “QVQLVESGGGLVQAGGSLRLSGAASGRIFVRNSMGWYRQAPGKERELVAAISSNGGSTRYADSVKGRFTISRDNAKNTVYLQMNSQKPEDTAVYYCNAYYSHSPRYLKYDYWGQGTQVTVSS”, the “polyreactivity (PSR sort gate)” value is “high polyreactivity”.

As for “QVQLVESGGGLVQAGGSLRLSGAASGRILRRYTMGWSRQAPGKERELVAAISSGGNTYYADSVKGRFTISRDNATNTVYLQMNSLKPEDTAGYYCAARVRRYWEYDYWGQGTQVTVSS”, the “polyreactivity (PSR sort gate)” value is listed as “low polyreactivity”.

For the sequence “QVQLVESGGGLVQAGGSLRLSGAASGRTFGSNDMGWYRQAHGKERELVAAISGRTDSTYYADSVKGRFTISRDIAKNTVYLQMNSLKPEDTAVYYCAADSADVLYYYIRYNYWGQGTQVTVSS”, the “polyreactivity (PSR sort gate)” value was “low polyreactivity”.

Consider “QVQLVESGGGLVQAGGSLRLSGAASGRTFVYYAMGWYRQAPGKEREFVAAISRSGGRTSYADSVKGRFTISRDNAKNTVYLQMNSLKPEDTAVYDCAKRPQFFWSHPYDYWGQGTLVTVSS”, for which the “polyreactivity (PSR sort gate)” value is “high polyreactivity”.

Regarding “QVQLVESGGGLVQAGGSLRLSGAASGSIFSHYAMGWYRQAPGKAWELVASISTADSTNYADSVKGRFTISRDNAKNTVYFQMYSLKPEDTAVYYCAAEYQSYAQYAWGYDYCGQGTQVTVSS”, the “polyreactivity (PSR sort gate)” value is reported as “low polyreactivity”.

For the sequence “QVQLVESGGGLVQAGGSLRLSGAASGSSFLRNAMGWSRQAPGKERELVATISTGSGRTYYADSVKGRFTISRDNAKNTVYLQMTSLKPEDTAVYYCAASRTLRKHRYEYWGQGTKVTVSS”, the “polyreactivity (PSR sort gate)” value is given as “high polyreactivity”.

With “QVQLVESGGGLVQAGGSLRLSGAASGSTFRYYVMGWYRQAPGKERELVAGISYRGGTTYYADSVKGRFTISRDNAKNTVYLQMISLKPEDTAVYYCNAETAAAQASFDRLYVLLDYWGQGTQVTVSS”, the “polyreactivity (PSR sort gate)” value is on record as “low polyreactivity”.

In the case of “QVQLVESGGGLVQAGGSLRLSGAASGSTFYPNAMGRYRQAPGKERELVAAISGRGGRTYYADSVKGRFTISRDFAKNTVYLQINSLKPEDTAVYYCNIVRASDHYDYWGQGTQVTVSS”, the “polyreactivity (PSR sort gate)” value is reported as “high polyreactivity”.

As to “QVQLVESGGGLVQAGGSLRLSGAATGSIIHPYAMGWYRQAPGKERELLAAISKSGGNTYYADSVKGRITISRDNAKNTVYLQMNSLKPEDTAVYYCAALDYWGQGTQVTVSS”, the “polyreactivity (PSR sort gate)” value is recorded as “low polyreactivity”.

With “QVQLVESGGGLVQAGGSLRLSGDASGYIFVRYAMGWYRQAPGQARELVAAINSSGGRTYYADSVKGRFTISRDNAKNTVYLQMNSLKPEDTAVYYCAAYAYYRSGYRALEGYWGQGTQVTVSS”, the “polyreactivity (PSR sort gate)” value is reported as “high polyreactivity”.

On to “QVQLVESGGGLVQAGGSLRLSRAASGFTITYNAKGWSRPAPGKESELVAAITGDGGSTYYADSVKGRFTISRDNAKNTVYLQMNSLKPEDTAVYYCAAYVVWGGTDGRYDYWGQGTQVTVSS”, for which the “polyreactivity (PSR sort gate)” value was “low polyreactivity”.

Regarding “QVQLVESGGGLVQAGGSLRLSRAASGGSLRLYAMRWYRQAHGKERELVSAINDRSGSTYYADSVKGRFTISRDNAKNTVYLKLNRLKPEDTAVYYCYAYGTPPGSDGQYDYWGQGTQVTVSS”, the “polyreactivity (PSR sort gate)” value was “high polyreactivity”.

As for “QVQLVESGGGLVQAGGSLRLSRAASGITFGFKAMGWYRQAPGKERELVAAITWSVGRTYYADSVKGRFTISRDNAKNTVYLQMNSLKPEDTAVYYCAKDFEAGDDYFAYDYWGQGTQVTVSS”, the “polyreactivity (PSR sort gate)” value is “low polyreactivity”.

As to “QVQLVESGGGLVQAGGSLRLSRAASGRTFYFNAMGWYRQAPGKERELVAGISGDGSTNYADSVKGRFTISRDNAKNTVYLQMNSLKPEDTAVYYCAKTLGSQNYDFDYWGQGTQVTVSS”, the “polyreactivity (PSR sort gate)” value is given as “low polyreactivity”.

For “QVQLVESGGGLVQAGGSLRLSRAGCGRIFFVYAMRWYRQAPGKERELVAALSVSDVSTSYADSVKGRFTISRDNAKNTVFLQMNSLKPEDTAVYYCLAAFRFYASSRIAGEDYWGQGTQVTVSS”, the “polyreactivity (PSR sort gate)” value is reported as “low polyreactivity”.

Regarding “QVQLVESGGGLVQAGGSLRLSRASSGVISYRNAMGWYRKAPGKERQLVASITSSGGRTYYADSVKGRFTISRDYATNSVFLQMNSLKPEDTAVYYCADDNWYKKLKRPSAYDYWGQGTQVTVSS”, the “polyreactivity (PSR sort gate)” value is reported as “high polyreactivity”.

In the case of “QVQLVESGGGLVQAGGSLRLSSAASGFIFDGNAMGWYRQAPGKERELVAAIRSGGRTNYADSVKGRFTISRDNAKNTVYLQMNSLKPEDTAVYYCAARSIYPYYYRRDNRYYYWGQGTQVTVSS”, the “polyreactivity (PSR sort gate)” value was “high polyreactivity”.

With “QVQLVESGGGLVQAGGSLRLSSAASGFIFPVYTMGWYRQAPGTERELLAAITQIGGSTHYADSVKGRFTISRDNAKNTVYLQMNSLKPVDTAVYYFNAVPSYGTEYDYWGQGTQVTVSS”, the “polyreactivity (PSR sort gate)” value was “low polyreactivity”.

Take “QVQLVESGGGLVQAGGSLRLSSAASGFIFRTYAMGRYRQAHGKESQLVAAISGTTGSKYYADSVKGRFTISRDNAKNTVYLQMNSLKPEDTAVYYCAADFYWYIRYDYWGQGTQVTVSS”: the “polyreactivity (PSR sort gate)” value was “low polyreactivity”.

On to “QVQLVESGGGLVQAGGSLRLSSAASGFIIVFYAMGWYRQAPGKERELVAAITWSGGGTYYADSVKGRCTISRDNAKNTVYLQMNSLKPEDTAVYYCNAEEPQYYYVLDKLYDFWGQGTQVTVSS”, for which the “polyreactivity (PSR sort gate)” value is reported as “low polyreactivity”.

In the case of “QVQLVESGGGLVQAGGSLRLSSAASGFILDTNAMGWYRQAPGKERELVSAITKRGIRTYYADSVKGRFTISRDNAQNTVYLQMNSLKPEDTAVYYCNAQRPIATVWHRYDSWGQGTQVTVSS”, the “polyreactivity (PSR sort gate)” value is on record as “high polyreactivity”.

For the sequence “QVQLVESGGGLVQAGGSLRLSSAASGFTFSQYAMGWYRQAPGKERELVAAISVSGGTTYYADSVKGRFTISRDNAKNTVYLQMNSLKPEDTAVYYCAARTPYSRSPYVNTSGYYYWGQGTQVTVSS”, the “polyreactivity (PSR sort gate)” value is listed as “high polyreactivity”.

For “QVQLVESGGGLVQAGGSLRLSSAASGFTFWSKAMGWYRQAPGKERELVAAISRGGSTYYADSVKGRFTITRDNAKNTVYLQMNSLKPEDTAVYYCAAVRLSRVYYWGQGTQVTVSS”, the “polyreactivity (PSR sort gate)” value is on record as “high polyreactivity”.

Consider “QVQLVESGGGLVQAGGSLRLSSAASGFTFYRNPMGWYRQAPGKERELVAAITRSGTSTYYADSVKGRFTISRDNAKNSVYLQKNSLKPEDTAVYYCNTVGYRGRSNSRFYYWGQGTQVTVSS”, for which the “polyreactivity (PSR sort gate)” value was “high polyreactivity”.

With “QVQLVESGGGLVQAGGSLRLSSAASGGTFTKNAMGWYRQAPGKERELVAAISWRGTSTYYADSVKGRFSISRDNAKNTVYLQMNSLKPDDTAVYFCLPWVGYGRYKPGYKYDYWGQGTQVTVSS”, the “polyreactivity (PSR sort gate)” value was “high polyreactivity”.

Consider “QVQLVESGGGLVQAGGSLRLSSAASGIIFGVYGMGWYRPAPGKERELVASIRYSSVRTYYADSVKGRFTISRDNAKNTVYLQMNSLKPEDTAVYYCAKYYVWPSYGYWGQGTQVTVSS”, for which the “polyreactivity (PSR sort gate)” value is listed as “high polyreactivity”.

“QVQLVESGGGLVQAGGSLRLSSAASGIIFKSYAMGWYRPAPGKERELVSAISGGGDTYYAYSVKGRFTISRDNAKNTVNLQMNSLKPEDTAVYYCNTDGSQGTIIAIFVKYDYWGQGTQVTVSS”: the “polyreactivity (PSR sort gate)” value was “low polyreactivity”.

Take “QVQLVESGGGLVQAGGSLRLSSAASGIIFRVYTMGWYLQAPGKERELVAKISLGGARTYYADSVKGRFTISRDNAKNTVYLQMNSLKPEDTAVYYCNARSRWTAKFDYWGQGTQVTVSS”: the “polyreactivity (PSR sort gate)” value is reported as “high polyreactivity”.

Take “QVQLVESGGGLVQAGGSLRLSSAASGITFDDYAMGWNRQAPGKERELVAAITWSGDSTYYADSVKGRFTISRDNAKNTVYLQMNSLKPEDTAVYYCAAVSYYYSGYIRGYWGQGTQVTVSS”: the “polyreactivity (PSR sort gate)” value was “high polyreactivity”.

On to “QVQLVESGGGLVQAGGSLRLSSAASGITFRTNTMGWYRQAPGKERELVASISSGTRTNYADSVKGRFTISRDNAKNTVYLQMNSLKPEDTAVDYCAAGPPRNRYRNARFDYWGQGTQVTVSS”, for which the “polyreactivity (PSR sort gate)” value was “high polyreactivity”.

Turning to “QVQLVESGGGLVQAGGSLRLSSAASGITFYVYAKGRYRQAPGKERELVAAISGSGGNTYYADSVKGRFTISRDNAKNTVYLQMNSLKPEDTPVYYFNADDHSPYYGDLDYWGQGTQVSVSS”, the “polyreactivity (PSR sort gate)” value is “low polyreactivity”.

Values taken from the nanobody polyreactivity screen of Harvey et al. (2022).
